Experimental data taken from article PMC6503385, “Functional characterization of BmOVOs in silkworm, Bombyx mori”.

Target: BmOVO zinc-finger domain (BmOVO-2 C-terminal) (Bombyx mori, UniProt D3YIG7 629-806)
Test: EMSA; 0.02 mg/ml protein, poly dI.dC; LightShift EMSA kit, 20 ul: 1x binding buffer, 1 ul each poly dI.dC, NP-40, KCl, glycerol; 0.75 pM probe; 20 min at room temperature; 6% polyacrylamide gel; pH
Conditions: protein: recombinant; tags: 6xHis (pET28a); label: biotin (5' on both strands as printed); blunt

BmOVO zinc-finger domain (BmOVO-2 C-terminal), sequence (D3YIG7 entry or part of it): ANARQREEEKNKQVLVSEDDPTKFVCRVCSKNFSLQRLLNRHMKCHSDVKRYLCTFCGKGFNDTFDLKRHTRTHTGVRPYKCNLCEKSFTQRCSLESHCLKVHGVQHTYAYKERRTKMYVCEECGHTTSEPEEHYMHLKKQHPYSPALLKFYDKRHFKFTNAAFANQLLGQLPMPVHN

B1: otu-A (CE1) (dsDNA)
DNA 1: GCCCCTAAAATGTACCGTTGTAACTTCTGT
DNA 2: ACAGAAGTTACAACGGTACATTTTAGGGGC
binding result: binds
